Like-named read-outs stand apart in the source and are kept apart here.
Tests used:
[1] = system: α-iduronidase-deficient mice (Idua−/−; Homozygote); experiment: Brain enzyme activity one hour after intranasal administration of forms of iduronidase; conditions: 2 mg/kg, FIG. 1
brain = conditions: in vivo; cited from earlier work
[2] = system: mouse model of mucopolysaccharidosis (MPS) type I; experiment: Reduction of brain glycosaminoglycans by intranasal treatment (carbazole assay); format: in vivo; conditions: intranasal 1 mg/kg every other day for two weeks, MPS I mice, *p<0.05, FIG. 3
Method: A mouse model of mucopolysaccharidosis (MPS) type I, which is null for the lysosomal enzyme, α-L-iduronidase (IDUA), was used to measure the amount of glycosaminoglycans in the brain following intranasal administration of 1 mg/kg IDUA or GNeo-AP-IDUA every other day for two weeks. Quantification of glycoaminoglycan was performed using the carbazole assay. […] Data are represented as mean±SD (n=5 or 6). One-way analysis of variance (ANOVA) with Tukey's post-hoc analysis for comparison was applied for data analysis (*p<0.05).

[3] = system: α-iduronidase-deficient mice (Idua−/−; Homozygote); conditions: mouse, in vivo
Method: One hour following administration the mice were sacrificed and their brains were removed and dissected to isolate tissue from the olfactory bulb, the cerebral cortex, and “other parts of the brain.” The total amount of tissue protein recovered from these various portions was ˜1 mg, ˜25 mg, and ˜50 mg, respectively. The various tissues were then assayed for IDUA activity, which was expressed relative to the wet weight of each part of brain.

[4] = system: α-iduronidase-deficient mice (Idua−/−; Homozygote); conditions: mouse, in vivo, 2 mg/kg
[5] = system: sulfamidase deficient mice (Sgsh−/−); experiment: Brain enzyme activity one hour after intranasal administration of sulfamidase forms; conditions: 2 mg/kg, FIG. 4
[6] = system: sulfamidase deficient mice (Sgsh−/−); conditions: mouse, in vivo, 2 mg/kg

B1: IDUA: recombinant enzyme iduronidase (Aldurazyme), not conjugated to guanidinoneomycin (protein, UniProt P35475 28-653, looked up)
Alpha-L-iduronidase: APHLVHVDAARALWPLRRFWRSTGFCPPLPHSQADQYVLSWDQQLNLAYVGAVPHRGIKQVRTHWLLELVTTRGSTGRGLSYNFTHLDGYLDLLRENQLLPGFELMGSASGHFTDFEDKQQVFEWKDLVSSLARRYIGRYGLAHVSKWNFETWNEPDHHDFDNVSMTMQGFLNYYDACSEGLRAASPALRLGGPGDSFHTPPRSPLSWGLLRHCHDGTNFFTGEAGVRLDYISLHRKGARSSISILEQEKVVAQQIRQLFPKFADTPIYNDEADPLVGWSLPQPWRADVTYAAMVVKVIAQHQNLLLANTTSAFPYALLSNDNAFLSYHPHPFAQRTLTARFQVNNTRPPHVQLLRKPVLTAMGLLALLDEEQLWAEVSQAGTVLDSNHTVGVLASAHRPQGPADAWRAAVLIYASDDTRAHPNRSVAVTLRLRGVPPGPGLVYVTRYLDNGLCSPDGEWRRLGRPVFPTAEQFRRMRAAEDPVAAAPRPLPAGGRLTLRPALRLPSLLLVHVCARPEKPPGQVTRLRALPLTQGQLVLVWSDEHVGSKCLWTYEIQFSQDGKAYTPVSRKPSTFNLFVFSPDTGAVSGSYRVRALDYWARPGPFSDPVPYLEVPVPRGPPSPGNP
enzyme activity in brain extracts (uptake into the brain) [1]: not taken up efficiently | levels of enzyme in the brain after intranasal delivery (brain): extremely low

B2: GNeo-AP-IDUA: iduronidase (Aldurazyme) treated with alkaline phosphatase to remove mannose-6-phosphate groups, then conjugated to guanidinoneomycin via GNeo-NHS (conjugate, UniProt P35475 28-653, looked up)
Alpha-L-iduronidase: APHLVHVDAARALWPLRRFWRSTGFCPPLPHSQADQYVLSWDQQLNLAYVGAVPHRGIKQVRTHWLLELVTTRGSTGRGLSYNFTHLDGYLDLLRENQLLPGFELMGSASGHFTDFEDKQQVFEWKDLVSSLARRYIGRYGLAHVSKWNFETWNEPDHHDFDNVSMTMQGFLNYYDACSEGLRAASPALRLGGPGDSFHTPPRSPLSWGLLRHCHDGTNFFTGEAGVRLDYISLHRKGARSSISILEQEKVVAQQIRQLFPKFADTPIYNDEADPLVGWSLPQPWRADVTYAAMVVKVIAQHQNLLLANTTSAFPYALLSNDNAFLSYHPHPFAQRTLTARFQVNNTRPPHVQLLRKPVLTAMGLLALLDEEQLWAEVSQAGTVLDSNHTVGVLASAHRPQGPADAWRAAVLIYASDDTRAHPNRSVAVTLRLRGVPPGPGLVYVTRYLDNGLCSPDGEWRRLGRPVFPTAEQFRRMRAAEDPVAAAPRPLPAGGRLTLRPALRLPSLLLVHVCARPEKPPGQVTRLRALPLTQGQLVLVWSDEHVGSKCLWTYEIQFSQDGKAYTPVSRKPSTFNLFVFSPDTGAVSGSYRVRALDYWARPGPFSDPVPYLEVPVPRGPPSPGNP
modifications: guanidinoneomycin conjugate; alkaline phosphatase modified
total GAG level in the mouse brain compared with untreated mouse brains [2]: significantly decreased | dose at which uptake into the olfactory bulb (OB) and cerebral cortex (CC) saturated [3]: ~1 mg/kg | enzyme concentration in the OB versus the CC, based on enzyme specific activity (nmols/hr/mg of tissue protein) [3]: much greater than in the CC | share of the administered dose in Other parts of the Brain [3]: ~64% | share of the administered dose in the CC [3]: ~23% | share of the administered dose in the OB [3]: ~13% | enzyme activity in brain extracts (uptake into the brain) [4]: significantly more enzymatic activity

B3: AP-IDUA: iduronidase modified with alkaline phosphatase only, not conjugated to GNeo (protein, UniProt P35475 28-653, looked up)
Alpha-L-iduronidase: APHLVHVDAARALWPLRRFWRSTGFCPPLPHSQADQYVLSWDQQLNLAYVGAVPHRGIKQVRTHWLLELVTTRGSTGRGLSYNFTHLDGYLDLLRENQLLPGFELMGSASGHFTDFEDKQQVFEWKDLVSSLARRYIGRYGLAHVSKWNFETWNEPDHHDFDNVSMTMQGFLNYYDACSEGLRAASPALRLGGPGDSFHTPPRSPLSWGLLRHCHDGTNFFTGEAGVRLDYISLHRKGARSSISILEQEKVVAQQIRQLFPKFADTPIYNDEADPLVGWSLPQPWRADVTYAAMVVKVIAQHQNLLLANTTSAFPYALLSNDNAFLSYHPHPFAQRTLTARFQVNNTRPPHVQLLRKPVLTAMGLLALLDEEQLWAEVSQAGTVLDSNHTVGVLASAHRPQGPADAWRAAVLIYASDDTRAHPNRSVAVTLRLRGVPPGPGLVYVTRYLDNGLCSPDGEWRRLGRPVFPTAEQFRRMRAAEDPVAAAPRPLPAGGRLTLRPALRLPSLLLVHVCARPEKPPGQVTRLRALPLTQGQLVLVWSDEHVGSKCLWTYEIQFSQDGKAYTPVSRKPSTFNLFVFSPDTGAVSGSYRVRALDYWARPGPFSDPVPYLEVPVPRGPPSPGNP
modifications: alkaline phosphatase modified
enzyme activity in brain extracts (uptake into the brain) [1]: does not appear to facilitate efficient transport into the brain

B4: GNeo-SGSH: Sulfamidase (SGSH) conjugated to guanidinoneomycin (conjugate, UniProt P51688 21-502, looked up)
N-sulphoglucosamine …: RPRNALLLLADDGGFESGAYNNSAIATPHLDALARRSLLFRNAFTSVSSCSPSRASLLTGLPQHQNGMYGLHQDVHHFNSFDKVRSLPLLLSQAGVRTGIIGKKHVGPETVYPFDFAYTEENGSVLQVGRNITRIKLLVRKFLQTQDDRPFFLYVAFHDPHRCGHSQPQYGTFCEKFGNGESGMGRIPDWTPQAYDPLDVLVPYFVPNTPAARADLAAQYTTVGRMDQGVGLVLQELRDAGVLNDTLVIFTSDNGIPFPSGRTNLYWPGTAEPLLVSSPEHPKRWGQVSEAYVSLLDLTPTILDWFSIPYPSYAIFGSKTIHLTGRSLLPALEAEPLWATVFGSQSHHEVTMSYPMRSVQHRHFRLVHNLNFKMPFPIDQDFYVSPTFQDLLNRTTAGQPTGWYKDLRHYYYRARWELYDRSRDPHETQNLATDPRFAQLLEMLRDQLAKWQWETHDPWVCAPDGVLEEKLSPQCQPLHNEL
modifications: guanidinoneomycin conjugate
enzyme activity in brain extracts (uptake into the brain) ([5]; one hour after administration): rapid uptake into the brain | level of activity in the olfactory bulb of brain versus wildtype animals ([5]; one hour): exceeded that found in wildtype animals

B5: SGSH: Sulfamidase with mannose-6-phosphate terminated glycans, not conjugated to guanidinoneomycin (protein, UniProt P51688 21-502, looked up)
N-sulphoglucosamine …: RPRNALLLLADDGGFESGAYNNSAIATPHLDALARRSLLFRNAFTSVSSCSPSRASLLTGLPQHQNGMYGLHQDVHHFNSFDKVRSLPLLLSQAGVRTGIIGKKHVGPETVYPFDFAYTEENGSVLQVGRNITRIKLLVRKFLQTQDDRPFFLYVAFHDPHRCGHSQPQYGTFCEKFGNGESGMGRIPDWTPQAYDPLDVLVPYFVPNTPAARADLAAQYTTVGRMDQGVGLVLQELRDAGVLNDTLVIFTSDNGIPFPSGRTNLYWPGTAEPLLVSSPEHPKRWGQVSEAYVSLLDLTPTILDWFSIPYPSYAIFGSKTIHLTGRSLLPALEAEPLWATVFGSQSHHEVTMSYPMRSVQHRHFRLVHNLNFKMPFPIDQDFYVSPTFQDLLNRTTAGQPTGWYKDLRHYYYRARWELYDRSRDPHETQNLATDPRFAQLLEMLRDQLAKWQWETHDPWVCAPDGVLEEKLSPQCQPLHNEL
enzyme activity in brain extracts (uptake into the brain) [6]: not taken up efficiently

— patent US9757468B2, “Intranasal administration of guanidinylated aminoglycosides” (The Regents of the University of California, priority 2013, dated 2017)
